Measured values from article PMC4743672.

Target: HLCS-NLuc (Myc-HLCS fused to the N-terminal fragment of firefly luciferase) (human) (UniProt P50747)
Test: split reporter

Sequence of UniProt P50747 (P50747 whole entry, the tested form may be a part): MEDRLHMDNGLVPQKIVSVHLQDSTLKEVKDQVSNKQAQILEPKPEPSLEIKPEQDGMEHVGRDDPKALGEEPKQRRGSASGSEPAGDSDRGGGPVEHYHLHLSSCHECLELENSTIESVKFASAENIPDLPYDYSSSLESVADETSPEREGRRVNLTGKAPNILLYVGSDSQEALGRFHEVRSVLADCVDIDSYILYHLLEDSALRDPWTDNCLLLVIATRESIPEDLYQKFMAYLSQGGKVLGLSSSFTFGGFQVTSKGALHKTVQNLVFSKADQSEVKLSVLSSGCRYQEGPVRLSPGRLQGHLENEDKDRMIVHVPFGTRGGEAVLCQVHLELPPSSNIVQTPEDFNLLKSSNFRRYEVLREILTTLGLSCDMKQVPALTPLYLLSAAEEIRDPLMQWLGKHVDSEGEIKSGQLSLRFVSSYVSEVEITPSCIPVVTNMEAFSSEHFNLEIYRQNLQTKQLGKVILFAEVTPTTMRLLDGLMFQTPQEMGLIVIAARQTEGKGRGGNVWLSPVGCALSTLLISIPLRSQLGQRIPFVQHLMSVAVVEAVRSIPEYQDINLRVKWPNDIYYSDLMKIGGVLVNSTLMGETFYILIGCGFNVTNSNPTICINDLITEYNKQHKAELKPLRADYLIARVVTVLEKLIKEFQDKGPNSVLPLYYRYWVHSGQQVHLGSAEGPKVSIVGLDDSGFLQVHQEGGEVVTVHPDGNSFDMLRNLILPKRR

Row | Substance | luminescence signal, fold of TP53-NLuc plus CDK3-CLuc (negative control) [fold] | luminescence signal, fold of unfused NLuc plus CLuc (background control) [fold]
1 | HDAC1Δ31-CLuc (Myc-HDAC1Δ31 fused to the C-terminal fragment of firefly luciferase) (enzyme) | 2.4 | 2.9
2 | N-CoR-CT-CLuc (Myc-N-CoR C-terminal domain fused to the C-terminal fragment of firefly luciferase) (domain or fragment) | 3.1 | 3.7
